From patent publication US20240400614A1, “CLEAVABLE PEPTIDES AND METHODS OF USE THEREOF” (Bright Peak Therapeutics AG, priority 2023, published 2024)
Square brackets hold non-standard residues; d marks the D form. Ends that are not written are not given here. Tyr(3-NO2) = N[C@@H](Cc1ccc(O)c([N+](=O)[O-])c1)C(=O)O; 2Abz = Nc1ccccc1C(=O)O

Key:
Type in all cases: biochemical
[1] = molecular target: T1, MMP-7 (Homo sapiens, UniProt P09237); assay: FRET peptide cleavage efficiency with MMP-7 (standard pH 7.5; also pH 6.5)
T1 construct: purchased SIGMA CC1059
T1 sequence (P09237 95-267): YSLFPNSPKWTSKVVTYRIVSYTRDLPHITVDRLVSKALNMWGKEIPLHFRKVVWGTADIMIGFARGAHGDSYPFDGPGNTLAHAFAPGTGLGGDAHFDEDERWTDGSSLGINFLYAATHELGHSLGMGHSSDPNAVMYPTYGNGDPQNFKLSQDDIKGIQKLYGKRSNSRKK

[2] = molecular target: T2, matriptase (Homo sapiens, UniProt Q9Y5Y6); assay: FRET peptide cleavage efficiency with matriptase
T2 construct: purchased R&D Systems 3946-SEB
T2 sequence (Q9Y5Y6 615-855 limits assumed): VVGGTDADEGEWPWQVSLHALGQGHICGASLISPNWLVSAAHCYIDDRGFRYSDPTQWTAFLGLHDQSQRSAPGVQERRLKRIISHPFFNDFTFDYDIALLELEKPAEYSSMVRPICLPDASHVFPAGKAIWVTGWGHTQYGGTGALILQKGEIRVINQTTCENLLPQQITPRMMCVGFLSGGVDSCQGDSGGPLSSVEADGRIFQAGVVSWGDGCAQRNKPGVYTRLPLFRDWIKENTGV

[3] = molecular target: uPA (Homo sapiens, UniProt P00749); assay: FRET peptide cleavage efficiency with uPA
[4] = molecular target: T3, MMP-2 (Homo sapiens, UniProt P08253); assay: FRET peptide cleavage efficiency with MMP-2
T3 construct: purchased SIGMA PF023
T3 sequence (P08253 110-660): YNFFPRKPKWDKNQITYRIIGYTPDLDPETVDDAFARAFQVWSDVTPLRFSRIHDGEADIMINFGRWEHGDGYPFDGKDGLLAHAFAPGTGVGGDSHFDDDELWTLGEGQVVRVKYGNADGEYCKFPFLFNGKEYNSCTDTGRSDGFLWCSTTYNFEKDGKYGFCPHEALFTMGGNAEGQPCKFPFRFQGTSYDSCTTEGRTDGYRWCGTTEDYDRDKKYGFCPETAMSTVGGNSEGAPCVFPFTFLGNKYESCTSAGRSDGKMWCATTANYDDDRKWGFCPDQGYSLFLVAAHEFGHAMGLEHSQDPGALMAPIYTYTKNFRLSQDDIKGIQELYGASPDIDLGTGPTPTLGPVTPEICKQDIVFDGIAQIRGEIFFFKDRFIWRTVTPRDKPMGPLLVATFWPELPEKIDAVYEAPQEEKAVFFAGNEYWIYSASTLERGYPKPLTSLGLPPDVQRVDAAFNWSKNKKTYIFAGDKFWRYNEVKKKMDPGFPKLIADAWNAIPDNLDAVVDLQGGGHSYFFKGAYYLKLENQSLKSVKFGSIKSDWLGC

[5] = molecular target: T4, MMP-9 (Homo sapiens, UniProt P14780); assay: FRET peptide cleavage efficiency with MMP-9 (standard pH 7.5; also pH 6.5)
T4 construct: purchased SIGMA PF024
T4 sequence (P14780 94-707): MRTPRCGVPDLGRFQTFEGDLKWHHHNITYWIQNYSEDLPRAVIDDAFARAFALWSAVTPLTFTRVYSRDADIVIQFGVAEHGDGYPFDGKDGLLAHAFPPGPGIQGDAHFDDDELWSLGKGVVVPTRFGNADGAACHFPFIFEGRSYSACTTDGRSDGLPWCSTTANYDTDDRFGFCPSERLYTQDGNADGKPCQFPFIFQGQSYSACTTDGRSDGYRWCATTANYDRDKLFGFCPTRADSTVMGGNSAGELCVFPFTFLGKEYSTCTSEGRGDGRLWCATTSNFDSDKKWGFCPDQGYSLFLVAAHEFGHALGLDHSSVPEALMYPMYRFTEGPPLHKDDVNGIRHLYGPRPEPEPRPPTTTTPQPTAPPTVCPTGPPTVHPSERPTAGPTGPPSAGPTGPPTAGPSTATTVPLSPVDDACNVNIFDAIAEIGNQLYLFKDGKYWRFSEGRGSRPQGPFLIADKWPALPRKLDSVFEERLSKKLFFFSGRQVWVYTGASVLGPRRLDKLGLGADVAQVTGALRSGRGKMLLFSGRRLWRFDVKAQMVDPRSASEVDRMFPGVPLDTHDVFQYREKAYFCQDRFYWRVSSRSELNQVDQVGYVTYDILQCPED

[6] = t = 15 min, standard conditions (Table 8)
[7] = t = 60 min, standard conditions (Table 8)
[8] = t = 120 min, standard conditions (Table 8)
[9] = t = 15 min, 200 uM linker, 1 ug/ml protease, 37° C., buffer B pH 9.0
[10] = t = 60 min, 200 uM linker, 1 ug/ml protease, 37° C., buffer B pH 9.0
[11] = 200 uM linker, 1 ug/ml protease, 37° C., buffer B pH 9.0
[12] = t = 15 min, 200 uM linker, 1 ug/ml protease, 37° C., buffer A pH 8.5
[13] = t = 60 min, 200 uM linker, 1 ug/ml protease, 37° C., buffer A pH 8.5
[14] = t = 120 min, 200 uM linker, 1 ug/ml protease, 37° C., buffer A pH 8.5
[15] = t = 15 min, 200 uM linker, 1 ug/ml protease, 37° C., buffer C pH 7.5
[16] = t = 60 min, 200 uM linker, 1 ug/ml protease, 37° C., buffer C pH 7.5
[17] = t = 120 min, 200 uM linker, 1 ug/ml protease, 37° C., buffer C pH 7.5

Row | % cleavage MMP-7 t = 15 min ([1]; t = 15 min (Table 9)) [%] | % cleavage MMP-7 t = 60 min ([1]; t = 60 min (Table 9)) [%] | % cleavage MMP-7 t = 120 min ([1]; t = 120 min (Table 9)) [%] | % cleavage MMP-2 t = 15 min ([4]; t = 15 min (Table 9)) [%] | % cleavage MMP-2 t = 60 min ([4]; t = 60 min (Table 9)) [%] | % cleavage MMP-2 t = 120 min ([4]; t = 120 min (Table 9)) [%] | % cleavage MMP-9 t = 15 min ([5]; t = 15 min (Table 9)) [%] | % cleavage MMP-9 t = 60 min ([5]; t = 60 min (Table 9)) [%] | % cleavage MMP-9 t = 120 min ([5]; t = 120 min (Table 9)) [%] | % cleavage Matriptase t = 15 min ([2]; pH 6.5, t = 15 min (Table 7)) [%] | % cleavage Matriptase t = 60 min ([2]; pH 6.5, t = 60 min (Table 7)) [%] | % cleavage Matriptase t = 15 min ([2]; pH 7.5, t = 15 min (Table 7)) [%] | % cleavage Matriptase t = 60 min ([2]; pH 7.5, t = 60 min (Table 7)) [%] | % cleavage Matriptase t = 15 min [2, 9] [%] | % cleavage Matriptase t = 60 min [2, 10] [%] | % cleavage Matriptase t = 120 min [2, 11] [%] | % cleavage uPA t = 60 min ([3]; pH 6.5, t = 60 min (Table 7)) [%] | % cleavage uPA t = 120 min ([3]; pH 6.5, t = 120 min (Table 7)) [%] | % cleavage uPA t = 60 min ([3]; pH 7.5, t = 60 min (Table 7)) [%] | % cleavage uPA t = 120 min ([3]; pH 7.5, t = 120 min (Table 7)) [%] | Sequence | also measured
1 | 59 | 100 | 100 | 49 | 91 | 100 | 55 | 100 | 100 |  |  |  |  |  |  |  |  |  |  |  | SGRVAPYMLQG ([2Abz]SGRVAPYMLQG[Tyr(3-NO2)]-NH2) [LNK042] | % cleavage MMP-7 t = 15 min [1, 6]: 59%; % cleavage MMP-7 t = 60 min [1, 7]: 100%; % cleavage MMP-7 t = 120 min [1, 8]: 100%; % cleavage Matriptase t = 15 min [2, 6]: 28%; % cleavage Matriptase t = 60 min [2, 7]: 80%; % cleavage Matriptase t = 120 min ([2]; standard conditions (Table 8)): 100%; % vcleavage uPA t = 15 min [3, 6]: 2%; % cleavage uPA t = 60 min [3, 7]: 6%; % cleavage uPA t = 120 min [3, 8]: 13%; % cleavage MMP-2 t = 60 min [4, 7]: 91%; % cleavage MMP-2 t = 120 min [4, 8]: 100%; % cleavage MMP-9 t = 15 min [5, 6]: 55%; % cleavage MMP-9 t = 60 min [5, 7]: 100%; % cleavage MMP-9 t = 120 min [5, 8]: 100%
2 | 25 | 79 | 100 | 91 | 96 | 100 | 98 | 99 | 100 | 70 | 100 | 100 | 100 | 97 | 95 | 95 | 0 | 0 | 0 | 0 | SGRVLRKAGPANLVG ([2Abz]SGRVLRKAGPANLVG[Tyr(3-NO2)]-NH2) [LNK014] | % cleavage uPA t = 15 min [3, 12]: 0%; % cleavage uPA t = 60 min [3, 13]: 2%; % cleavage uPA t = 120 min [3, 14]: 7%; % cleavage MMP-2 t = 15 min ([4]; pH 6.5, t = 15 min (Table 7)): 100%; % cleavage MMP-2 t = 60 min ([4]; pH 6.5, t = 60 min (Table 7)): 100%; % cleavage MMP-2 t = 15 min ([4]; pH 7.5, t = 15 min (Table 7)): 100%; % cleavage MMP-2 t = 60 min ([4]; pH 7.5, t = 60 min (Table 7)): 100%; % cleavage MMP-2 t = 15 min [4, 15]: 93%; % cleavage MMP-2 t = 60 min [4, 16]: 97%; % cleavage MMP-2 t = 120 min [4, 17]: 97%
3 | 19 | 62 | 86 | 7 | 34 | 59 | 22 | 72 | 93 | 48 | 93 | 98 | 100 | 96 | 91 | 88 | 0 | 0 | 0 | 0 | SGRVLRKAGPQPLVD ([2Abz]SGRVLRKAGPQPLVD[Tyr(3-NO2)]-NH2) [LNK003] | % cleavage uPA t = 15 min [3, 12]: 3%; % cleavage uPA t = 60 min [3, 13]: 10%; % cleavage uPA t = 120 min [3, 14]: 20%; % cleavage MMP-2 t = 15 min ([4]; pH 6.5, t = 15 min (Table 7)): 5%; % cleavage MMP-2 t = 60 min ([4]; pH 6.5, t = 60 min (Table 7)): 39%; % cleavage MMP-2 t = 15 min ([4]; pH 7.5, t = 15 min (Table 7)): 6%; % cleavage MMP-2 t = 60 min ([4]; pH 7.5, t = 60 min (Table 7)): 28%; % cleavage MMP-2 t = 15 min [4, 15]: 8%; % cleavage MMP-2 t = 60 min [4, 16]: 38%; % cleavage MMP-2 t = 120 min [4, 17]: 65%
